Each block holds one binder with its values, some of them ahead of it. No end group written: not given here. *: point of attachment. Biotin = O=C1N[C@H]2[C@H](CS[C@H]2CCCCC(=O)*)N1
Experiments:
[1] = target: T1, Duffy Antigen Receptor for Chemokines (DARC) (human, UniProt Q16570 1-336); assay: Table 18, DARC binding; ns = not significantly different from control
T1 construct: whole, on cells
T1 sequence (looked up): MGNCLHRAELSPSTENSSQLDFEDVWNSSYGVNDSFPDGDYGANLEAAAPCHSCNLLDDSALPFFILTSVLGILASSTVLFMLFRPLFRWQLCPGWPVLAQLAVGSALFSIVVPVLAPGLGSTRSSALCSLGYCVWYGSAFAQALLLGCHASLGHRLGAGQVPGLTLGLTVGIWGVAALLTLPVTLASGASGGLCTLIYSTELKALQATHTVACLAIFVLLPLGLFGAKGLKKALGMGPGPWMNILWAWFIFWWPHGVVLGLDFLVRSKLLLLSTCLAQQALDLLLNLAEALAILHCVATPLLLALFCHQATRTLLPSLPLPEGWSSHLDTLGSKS

[2] = target: T1, Duffy Antigen Receptor for Chemokines …; assay: DARC binding on red blood cells; printed as Duffy affinity
[3] = target: T1, Duffy Antigen Receptor for Chemokines …; assay: estimated ka for binding to red blood cells divided by average inhibitory ED50 in THP-1 migration
[4] = target: T1, Duffy Antigen Receptor for Chemokines …; assay: ka for binding to red blood cells divided by ka for binding to THP-1 cells
[5] = target: T1, Duffy Antigen Receptor for Chemokines …; assay: competition binding analysis using red blood cells; given as affinity
[6] = target: T1, Duffy Antigen Receptor for Chemokines …; assay: Duffy binding; kind of constant not named
CXCR2 = target: T2, CXCR2 (human, UniProt P25025 1-360); assay: biotin-labeled peptide on receptor-expressing cell lines, 125I-streptavidin
T2 construct: whole, on cells
T2 sequence (looked up): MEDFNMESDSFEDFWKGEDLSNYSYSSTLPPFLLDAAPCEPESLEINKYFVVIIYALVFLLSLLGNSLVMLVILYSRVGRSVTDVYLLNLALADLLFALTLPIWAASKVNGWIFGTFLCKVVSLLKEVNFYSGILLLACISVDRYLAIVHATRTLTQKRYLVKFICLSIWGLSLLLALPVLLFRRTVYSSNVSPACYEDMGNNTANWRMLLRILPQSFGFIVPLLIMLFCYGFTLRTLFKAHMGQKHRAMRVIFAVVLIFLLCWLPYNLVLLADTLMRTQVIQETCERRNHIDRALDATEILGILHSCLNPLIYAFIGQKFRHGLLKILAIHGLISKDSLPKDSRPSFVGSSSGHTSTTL

CXCR4 = target: T3, CXCR4 (human, UniProt P61073 1-352); assay: as above
T3 construct: whole, on cells
T3 sequence (P61073 whole entry): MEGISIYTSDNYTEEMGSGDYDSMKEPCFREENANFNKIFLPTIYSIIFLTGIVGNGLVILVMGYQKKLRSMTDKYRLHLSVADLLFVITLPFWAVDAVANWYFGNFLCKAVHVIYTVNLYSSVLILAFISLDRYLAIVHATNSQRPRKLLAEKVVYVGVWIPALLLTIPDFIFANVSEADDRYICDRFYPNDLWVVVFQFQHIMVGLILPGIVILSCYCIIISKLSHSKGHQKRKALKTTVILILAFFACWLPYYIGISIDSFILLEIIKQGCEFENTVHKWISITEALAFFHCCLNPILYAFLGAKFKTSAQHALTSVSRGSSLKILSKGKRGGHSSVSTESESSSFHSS

CCR2 = target: T4, CCR2 (human, UniProt P41597 1-374); assay: as above
T4 construct: whole, on cells
T4 sequence (P41597 whole entry): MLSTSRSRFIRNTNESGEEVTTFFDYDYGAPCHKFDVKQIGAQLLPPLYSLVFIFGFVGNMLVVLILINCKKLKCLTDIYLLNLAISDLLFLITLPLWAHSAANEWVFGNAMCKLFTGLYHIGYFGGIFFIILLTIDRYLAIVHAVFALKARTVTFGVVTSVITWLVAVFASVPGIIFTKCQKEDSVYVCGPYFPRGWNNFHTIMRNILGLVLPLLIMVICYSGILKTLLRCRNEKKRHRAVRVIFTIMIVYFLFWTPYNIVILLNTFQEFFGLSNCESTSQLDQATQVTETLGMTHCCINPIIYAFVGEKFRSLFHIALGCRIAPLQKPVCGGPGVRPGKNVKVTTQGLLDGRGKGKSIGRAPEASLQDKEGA

CXCR1 = target: T5, CXCR1 (human, UniProt P25024 1-350); assay: as above
T5 construct: whole, on cells
T5 sequence (looked up): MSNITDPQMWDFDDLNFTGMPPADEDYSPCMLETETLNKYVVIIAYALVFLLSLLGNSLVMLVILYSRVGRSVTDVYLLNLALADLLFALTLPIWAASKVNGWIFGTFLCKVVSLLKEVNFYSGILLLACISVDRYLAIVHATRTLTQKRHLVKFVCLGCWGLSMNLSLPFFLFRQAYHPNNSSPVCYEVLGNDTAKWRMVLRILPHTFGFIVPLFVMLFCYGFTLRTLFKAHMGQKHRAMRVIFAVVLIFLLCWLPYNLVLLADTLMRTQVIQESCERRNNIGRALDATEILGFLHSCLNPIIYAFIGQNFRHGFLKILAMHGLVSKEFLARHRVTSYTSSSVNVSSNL

CCR4 = target: T6, CCR4 (human, UniProt P51679 1-360); assay: as above
T6 construct: whole, on cells
T6 sequence (looked up): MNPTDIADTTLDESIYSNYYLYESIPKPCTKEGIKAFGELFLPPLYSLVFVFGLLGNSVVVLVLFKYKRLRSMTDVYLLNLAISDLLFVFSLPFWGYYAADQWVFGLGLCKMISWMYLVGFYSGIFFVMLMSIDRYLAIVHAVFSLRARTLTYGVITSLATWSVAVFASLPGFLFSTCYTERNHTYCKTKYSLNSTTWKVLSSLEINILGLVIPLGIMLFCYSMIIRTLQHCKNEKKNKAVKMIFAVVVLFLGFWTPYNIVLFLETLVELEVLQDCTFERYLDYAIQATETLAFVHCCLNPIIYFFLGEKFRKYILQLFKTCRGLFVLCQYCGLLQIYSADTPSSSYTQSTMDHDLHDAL

CCR1 = target: T7, CCR1 (human, UniProt P32246 1-355); assay: as above
T7 construct: whole, on cells
T7 sequence (looked up): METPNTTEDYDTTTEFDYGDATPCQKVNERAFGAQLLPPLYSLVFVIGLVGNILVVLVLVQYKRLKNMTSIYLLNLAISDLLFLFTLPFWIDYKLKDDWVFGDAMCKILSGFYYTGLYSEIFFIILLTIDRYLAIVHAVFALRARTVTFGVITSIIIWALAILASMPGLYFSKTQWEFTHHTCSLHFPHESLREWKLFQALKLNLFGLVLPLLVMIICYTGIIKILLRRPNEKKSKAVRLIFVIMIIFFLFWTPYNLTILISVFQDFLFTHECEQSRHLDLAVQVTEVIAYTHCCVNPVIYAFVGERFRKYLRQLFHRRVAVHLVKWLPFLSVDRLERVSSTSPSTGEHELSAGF

CCR5 = target: T8, CCR5 (human, UniProt P51681 1-352); assay: as above
T8 construct: whole, on cells
T8 sequence (P51681 whole entry): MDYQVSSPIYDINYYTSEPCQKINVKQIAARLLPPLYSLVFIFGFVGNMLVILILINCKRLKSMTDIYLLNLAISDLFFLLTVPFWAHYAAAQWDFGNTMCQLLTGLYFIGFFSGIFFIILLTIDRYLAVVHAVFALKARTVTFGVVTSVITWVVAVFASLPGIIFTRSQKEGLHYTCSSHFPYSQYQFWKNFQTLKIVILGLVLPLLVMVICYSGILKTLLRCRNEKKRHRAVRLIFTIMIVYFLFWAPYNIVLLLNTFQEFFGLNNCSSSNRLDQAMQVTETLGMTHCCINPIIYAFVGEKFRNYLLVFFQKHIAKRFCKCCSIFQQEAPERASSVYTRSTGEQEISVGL

CCR3 = target: T9, CCR3 (human, UniProt P51677 1-355); assay: as above
T9 construct: whole, on cells
T9 sequence (looked up): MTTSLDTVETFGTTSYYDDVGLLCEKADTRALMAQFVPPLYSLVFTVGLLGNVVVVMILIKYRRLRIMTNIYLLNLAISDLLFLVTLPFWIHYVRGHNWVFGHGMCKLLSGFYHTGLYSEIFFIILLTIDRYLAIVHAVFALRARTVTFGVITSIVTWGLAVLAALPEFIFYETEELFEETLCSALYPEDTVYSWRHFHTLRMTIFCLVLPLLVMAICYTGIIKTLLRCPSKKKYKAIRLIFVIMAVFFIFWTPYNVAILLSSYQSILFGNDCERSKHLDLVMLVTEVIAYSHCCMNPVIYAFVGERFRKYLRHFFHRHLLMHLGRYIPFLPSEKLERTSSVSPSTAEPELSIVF

binding result [1]: no binding
Binder: DYFETSSQC

binding result [1]: no binding
Binder: CSKPGV

Kd [2]: ~50 µM
Binder: SYRRITSSK [Peptide 2(1-9)[MCP-1]]

Duffy selectivity [3]: 37.8 ratio
B1: Leu4Ile11peptide 3(1-12)[MCP-1] (peptide)
peptide: EICLDPKQKWIQ
notes: also called Leu4Ile11pep3; Leu4Ile11peptide 3[MCP-1]

Duffy selectivity [4]: > 100 ratio
B2: Pep2(1-14)[MIP1α] (peptide)
peptide: DYFETSSQCSKPGV
notes: Called peptide 2(1-15)[MIP1α]; also called Pep2[MIP1α]; peptide 2(1-15)[MIP1-α]

Duffy selectivity [4]: 0.18 ratio
Kd [5]: < 0.5 µM
Kd [6]: 100 µM
B3: Peptide 2(1-15)[MCP-1] (peptide)
peptide: SYRRITSSKCPKEAV
notes: also called Pep2[MCP1]; Pep2(1-15)[MCP1]

Kd (CXCR2): > 10 µM
Kd (CXCR4): > 10 µM
Kd (CCR2): > 10 µM
Kd (CXCR1): > 10 µM
Kd (CCR4): > 10 µM
Kd (CCR1): > 10 µM
Kd (CCR5): > 10 µM
Kd (CCR3): > 10 µM
Binder: Biotin-CLDPKQKWIQC (cysteine pairing not given here, also called biotinylated peptide) [N-terminal biotin conjugate of the sequence n'-CLDPKQKWIQC-c']

Duffy selectivity [4]: < 1 ratio
Binder: ELRVIESGPHCANTEI (also called Pep2[IL8]) [Pep2(1-16)[IL8]]

Reference: patent EP2386565A2 (Cambridge Enterprise Ltd., dated 2000)
